Results on 4 substances are retold here after patent publication US20220356230A1.

This assay has as its target VSV G protein on VSV delta G pseudotyped virus-like particles (Vesicular stomatitis virus) (UniProt P03522).
In the case of mAb10933 (antibody), the VSV-VLP Binding Signal (RLU) came out at 507 RLU.

The substance mAb10934 (antibody) yielded a VSV-VLP Binding Signal (RLU) of 3880 RLU.

mAb10936 (antibody) came in with a VSV-VLP Binding Signal (RLU) of 2320 RLU.

In turn, mAb10987 (antibody) gave a VSV-VLP Binding Signal (RLU) of 1840 RLU.
